{"source": "the supplement of paper PMC10567573", "parents": {"B1": {"name": "ZER1 (parent)", "chain": "KEMARKVIEHCSNFKEENMDTSR"}}, "data": [{"variants_of": "B1", "experiment": "protein stability index of a GFP-peptide fusion (GPS, HEK-293T) (PSI 1-6); higher = more stable", "details": "c terminus: native", "values": [{"variant": "KEMARKVIEHCSNFKEEYMDTSR", "note": "[N18Y]", "protein stability index": 3.08}, {"variant": "KEMARKVIEHCSNFKEEPMDTSR", "note": "[N18P]", "protein stability index": 3.9}, {"variant": "KEMALKVIEHCSNFKEENMDTSR", "note": "[R5L]", "protein stability index": 2.74}, {"variant": "KEMACKVIEHCSNFKEENMDTSR", "note": "[R5C]", "protein stability index": 3.76}, {"variant": "KEMAWKVIEHCSNFKEENMDTSR", "note": "[R5W]", "protein stability index": 1.94}, {"variant": "KEMAYKVIEHCSNFKEENMDTSR", "note": "[R5Y]", "protein stability index": 2.68}, {"variant": "KEMASKVIEHCSNFKEENMDTSR", "note": "[R5S]", "protein stability index": 3.81}, {"variant": "KEMAPKVIEHCSNFKEENMDTSR", "note": "[R5P]", "protein stability index": 4.74}, {"variant": "KEMAIKVIEHCSNFKEENMDTSR", "note": "[R5I]", "protein stability index": 2.83}, {"variant": "KEMARKVIEHCSNFKEENMDGSR", "note": "[T21G]", "protein stability index": 5.12}, {"variant": "KEMARKVIEHCSNFKEENMDNSR", "note": "[T21N]", "protein stability index": 4.48}, {"variant": "KEMARKVIEHCSNFKEENMDRSR", "note": "[T21R]", "protein stability index": 1.65}, {"variant": "KEMARKVIEHCSNFKEENFDTSR", "note": "[M19F]", "protein stability index": 3.94}, {"variant": "KEMARKVIEHCSNFKEENNDTSR", "note": "[M19N]", "protein stability index": 4.29}, {"variant": "KEMARKVIEHCSNFKEENQDTSR", "note": "[M19Q]", "protein stability index": 3.87}, {"variant": "KEMARKVIEHCSNFKEENRDTSR", "note": "[M19R]", "protein stability index": 3.62}, {"variant": "KEMARKVIEHCSNFKEENGDTSR", "note": "[M19G]", "protein stability index": 3.37}, {"variant": "KEMARKVIEHCSNHKEENMDTSR", "note": "[F14H]", "protein stability index": 4.8}, {"variant": "KEMARKVIEHCSNWKEENMDTSR", "note": "[F14W]", "protein stability index": 3.33}, {"variant": "KEMARKVIEHCSNNKEENMDTSR", "note": "[F14N]", "protein stability index": 4.73}, {"variant": "KEMARKVIEHDSNFKEENMDTSR", "note": "[C11D]", "protein stability index": 4.79}, {"variant": "KEMARKVIEHWSNFKEENMDTSR", "note": "[C11W]", "protein stability index": 2.19}, {"variant": "KEMARKVIEHLSNFKEENMDTSR", "note": "[C11L]", "protein stability index": 2.59}, {"variant": "KEMARKVIEHCSNFKEINMDTSR", "note": "[E17I]", "protein stability index": 3.15}, {"variant": "KEMARKVIEHCSNFKECNMDTSR", "note": "[E17C]", "protein stability index": 2.68}, {"variant": "KEMARKVIEHCSNFKENNMDTSR", "note": "[E17N]", "protein stability index": 3.55}, {"variant": "KEMARKVIEHCSNFKELNMDTSR", "note": "[E17L]", "protein stability index": 2.35}, {"variant": "KEMARKVIEHCSNFKEENMDTFR", "note": "[S22F]", "protein stability index": 3.72}, {"variant": "KEMARKVIEHCSNFKEENMDTPR", "note": "[S22P]", "protein stability index": 4.29}, {"variant": "KEMARKVIEHCSNFKEENMDTAR", "note": "[S22A]", "protein stability index": 2.64}, {"variant": "KEMARKVIEHCSNFKEENMDTYR", "note": "[S22Y]", "protein stability index": 3.76}, {"variant": "KEMARKVIEHCSNFKEENMDTQR", "note": "[S22Q]", "protein stability index": 3.72}, {"variant": "KEMARKVIEHCSNFKEENMDTVR", "note": "[S22V]", "protein stability index": 3.7}, {"variant": "KEMARKVIEHCSNFKEENMDTER", "note": "[S22E]", "protein stability index": 3.74}, {"variant": "KEMARNVIEHCSNFKEENMDTSR", "note": "[K6N]", "protein stability index": 3.89}, {"variant": "KEMARYVIEHCSNFKEENMDTSR", "note": "[K6Y]", "protein stability index": 1.7}, {"variant": "KEIARKVIEHCSNFKEENMDTSR", "note": "[M3I]", "protein stability index": 3.29}, {"variant": "KEPARKVIEHCSNFKEENMDTSR", "note": "[M3P]", "protein stability index": 4.78}, {"variant": "KEEARKVIEHCSNFKEENMDTSR", "note": "[M3E]", "protein stability index": 4.53}, {"variant": "KEYARKVIEHCSNFKEENMDTSR", "note": "[M3Y]", "protein stability index": 3.29}, {"variant": "KEHARKVIEHCSNFKEENMDTSR", "note": "[M3H]", "protein stability index": 4.05}, {"variant": "KEGARKVIEHCSNFKEENMDTSR", "note": "[M3G]", "protein stability index": 4.37}, {"variant": "KEMARKVIEHCPNFKEENMDTSR", "note": "[S12P]", "protein stability index": 4.37}, {"variant": "KEMARKVIEHCNNFKEENMDTSR", "note": "[S12N]", "protein stability index": 3.95}, {"variant": "KEMARKVIEHCKNFKEENMDTSR", "note": "[S12K]", "protein stability index": 3.49}, {"variant": "KEMARKVIEHCQNFKEENMDTSR", "note": "[S12Q]", "protein stability index": 3.55}, {"variant": "KEMARKVIEHCGNFKEENMDTSR", "note": "[S12G]", "protein stability index": 4.21}, {"variant": "KEMARKVIRHCSNFKEENMDTSR", "note": "[E9R]", "protein stability index": 4.01}, {"variant": "KEMARKVILHCSNFKEENMDTSR", "note": "[E9L]", "protein stability index": 2.64}, {"variant": "KEMARKVIVHCSNFKEENMDTSR", "note": "[E9V]", "protein stability index": 3.87}, {"variant": "KEMARKVIKHCSNFKEENMDTSR", "note": "[E9K]", "protein stability index": 4.37}, {"variant": "KEMARKVIEHCSNFKEENMDTSA", "note": "[R23A]", "protein stability index": 4.67}, {"variant": "KEMARKVIEHCSNFKEENMDTSD", "note": "[R23D]", "protein stability index": 5.41}, {"variant": "KEMARKVIEHCSNFKEENMDTSQ", "note": "[R23Q]", "protein stability index": 5.31}, {"variant": "KEMARKVIEHCSNFKEENMKTSR", "note": "[D20K]", "protein stability index": 2.29}, {"variant": "KEMARKVIEHCSNFKEENMATSR", "note": "[D20A]", "protein stability index": 1.63}, {"variant": "KEMARKVIEHCSNFKEENMITSR", "note": "[D20I]", "protein stability index": 1.52}, {"variant": "KEMARKVEEHCSNFKEENMDTSR", "note": "[I8E]", "protein stability index": 4.87}, {"variant": "KEMARKVHEHCSNFKEENMDTSR", "note": "[I8H]", "protein stability index": 4.29}, {"variant": "KEMARKVFEHCSNFKEENMDTSR", "note": "[I8F]", "protein stability index": 3.2}, {"variant": "KEMARKVYEHCSNFKEENMDTSR", "note": "[I8Y]", "protein stability index": 3.88}, {"variant": "LEMARKVIEHCSNFKEENMDTSR", "note": "[K1L]", "protein stability index": 2.73}, {"variant": "GEMARKVIEHCSNFKEENMDTSR", "note": "[K1G]", "protein stability index": 4.12}, {"variant": "HEMARKVIEHCSNFKEENMDTSR", "note": "[K1H]", "protein stability index": 4.3}, {"variant": "WEMARKVIEHCSNFKEENMDTSR", "note": "[K1W]", "protein stability index": 2.98}, {"variant": "EEMARKVIEHCSNFKEENMDTSR", "note": "[K1E]", "protein stability index": 4.81}, {"variant": "IEMARKVIEHCSNFKEENMDTSR", "note": "[K1I]", "protein stability index": 2.95}, {"variant": "REMARKVIEHCSNFKEENMDTSR", "note": "[K1R]", "protein stability index": 4.31}, {"variant": "KEMARKVIEHCSNFKNENMDTSR", "note": "[E16N]", "protein stability index": 3.19}, {"variant": "KEMARKVIEHCSNFKMENMDTSR", "note": "[E16M]", "protein stability index": 2.68}, {"variant": "KEMARKVIEHCSNFKQENMDTSR", "note": "[E16Q]", "protein stability index": 3.14}, {"variant": "KEMARKVIEHCSNFKCENMDTSR", "note": "[E16C]", "protein stability index": 3.17}, {"variant": "KEMARKVIEHCSNFVEENMDTSR", "note": "[K15V]", "protein stability index": 3.9}, {"variant": "KEMARKVIEHCSNFIEENMDTSR", "note": "[K15I]", "protein stability index": 3.5}, {"variant": "KEMARKVIEHCSNFWEENMDTSR", "note": "[K15W]", "protein stability index": 2.85}, {"variant": "KEMARKVIEHCSNFQEENMDTSR", "note": "[K15Q]", "protein stability index": 3.57}, {"variant": "KEMARKYIEHCSNFKEENMDTSR", "note": "[V7Y]", "protein stability index": 2.09}, {"variant": "KEMARKWIEHCSNFKEENMDTSR", "note": "[V7W]", "protein stability index": 3.19}, {"variant": "KEMARKAIEHCSNFKEENMDTSR", "note": "[V7A]", "protein stability index": 4.87}, {"variant": "KEMARKCIEHCSNFKEENMDTSR", "note": "[V7C]", "protein stability index": 4.55}, {"variant": "KEMARKRIEHCSNFKEENMDTSR", "note": "[V7R]", "protein stability index": 4.65}, {"variant": "KEMARKVIEVCSNFKEENMDTSR", "note": "[H10V]", "protein stability index": 3.33}, {"variant": "KEMARKVIEYCSNFKEENMDTSR", "note": "[H10Y]", "protein stability index": 1.9}, {"variant": "KEMARKVIEICSNFKEENMDTSR", "note": "[H10I]", "protein stability index": 1.94}, {"variant": "KEMARKVIEDCSNFKEENMDTSR", "note": "[H10D]", "protein stability index": 4.06}, {"variant": "KEMARKVIEWCSNFKEENMDTSR", "note": "[H10W]", "protein stability index": 2.15}, {"variant": "KEMARKVIEHCSWFKEENMDTSR", "note": "[N13W]", "protein stability index": 2.4}, {"variant": "KEMARKVIEHCSIFKEENMDTSR", "note": "[N13I]", "protein stability index": 1.93}, {"variant": "KEMARKVIEHCSSFKEENMDTSR", "note": "[N13S]", "protein stability index": 3.33}, {"variant": "KYMARKVIEHCSNFKEENMDTSR", "note": "[E2Y]", "protein stability index": 2.35}, {"variant": "KMMARKVIEHCSNFKEENMDTSR", "note": "[E2M]", "protein stability index": 3.42}, {"variant": "KEMVRKVIEHCSNFKEENMDTSR", "note": "[A4V]", "protein stability index": 2.59}, {"variant": "KEMCRKVIEHCSNFKEENMDTSR", "note": "[A4C]", "protein stability index": 3.02}, {"variant": "KEMKRKVIEHCSNFKEENMDTSR", "note": "[A4K]", "protein stability index": 4.29}, {"variant": "KEMRRKVIEHCSNFKEENMDTSR", "note": "[A4R]", "protein stability index": 4.15}, {"variant": "KEMQRKVIEHCSNFKEENMDTSR", "note": "[A4Q]", "protein stability index": 4.21}, {"variant": "KEMSRKVIEHCSNFKEENMDTSR", "note": "[A4S]", "protein stability index": 4.13}]}]}
